molecular target: T1, FcγRIa extracellular domain with C-terminal His tag (human, UniProt P12314 16-292); test: SPR Biacore, relative FcγRIa binding vs GpH7-A5/GpH7-B3/GpL16-k0
T1 construct: extracellular domain; also called FcgRI; CD64; not shown: His tag at the C terminus
T1 sequence (P12314 16-292): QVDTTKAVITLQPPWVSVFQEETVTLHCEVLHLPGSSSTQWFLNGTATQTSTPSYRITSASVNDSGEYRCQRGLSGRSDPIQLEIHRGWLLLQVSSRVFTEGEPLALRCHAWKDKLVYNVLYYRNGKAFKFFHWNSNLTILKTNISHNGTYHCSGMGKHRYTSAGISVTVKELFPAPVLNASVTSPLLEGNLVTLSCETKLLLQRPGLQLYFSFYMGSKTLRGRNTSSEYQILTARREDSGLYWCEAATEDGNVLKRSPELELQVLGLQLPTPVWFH

Binder	He/Con_1a
GpH7-A5/GpH7-B3 variant P329_02A/GpL16-k0 (antibody, human IgG1, kappa, mutation in one H chain only; also called He Ab P329_02A; P329A) heavy 1: not shown heavy 2: not shown light: DIVMTQSPLSLPVTPGEPASISCQASESLVHSNRNTYLHWYLQKPGQSPQLLIYKVSNRFSGVPDRFSGSGSGTDFTLKISRVEAEDVGVYYCSQNTHVPPTFGQGTKVEIERTVAAPSVFIFPPSDEQLKSGTASVVCLLNNFYPREAKVQWKVDNALQSGNSQESVTEQDSKDSTYSLSSTLTLSKADYEKHKVYACEVTHQGLSSPVTKSFNRGEC	102 % of HeCon Ab (=100)
GpH7-A5/GpH7-B3 variant P271_14T/GpL16-k0 (antibody, human IgG1, kappa, mutation in one H chain only; also called He Ab P271_14T; P271T) heavy 1: not shown heavy 2: not shown light: DIVMTQSPLSLPVTPGEPASISCQASESLVHSNRNTYLHWYLQKPGQSPQLLIYKVSNRFSGVPDRFSGSGSGTDFTLKISRVEAEDVGVYYCSQNTHVPPTFGQGTKVEIERTVAAPSVFIFPPSDEQLKSGTASVVCLLNNFYPREAKVQWKVDNALQSGNSQESVTEQDSKDSTYSLSSTLTLSKADYEKHKVYACEVTHQGLSSPVTKSFNRGEC	102 % of HeCon Ab (=100)
GpH7-A5/GpH7-B3 variant Q295_05P/GpL16-k0 (antibody, human IgG1, kappa, mutation in one H chain only; also called He Ab Q295_05P; Q295P) heavy 1: not shown heavy 2: not shown light: DIVMTQSPLSLPVTPGEPASISCQASESLVHSNRNTYLHWYLQKPGQSPQLLIYKVSNRFSGVPDRFSGSGSGTDFTLKISRVEAEDVGVYYCSQNTHVPPTFGQGTKVEIERTVAAPSVFIFPPSDEQLKSGTASVVCLLNNFYPREAKVQWKVDNALQSGNSQESVTEQDSKDSTYSLSSTLTLSKADYEKHKVYACEVTHQGLSSPVTKSFNRGEC	103 % of HeCon Ab (=100)
GpH7-A5/GpH7-B3 variant Q295_07I/GpL16-k0 (antibody, human IgG1, kappa, mutation in one H chain only; also called He Ab Q295_07I; Q295I) heavy 1: not shown heavy 2: not shown light: DIVMTQSPLSLPVTPGEPASISCQASESLVHSNRNTYLHWYLQKPGQSPQLLIYKVSNRFSGVPDRFSGSGSGTDFTLKISRVEAEDVGVYYCSQNTHVPPTFGQGTKVEIERTVAAPSVFIFPPSDEQLKSGTASVVCLLNNFYPREAKVQWKVDNALQSGNSQESVTEQDSKDSTYSLSSTLTLSKADYEKHKVYACEVTHQGLSSPVTKSFNRGEC	103 % of HeCon Ab (=100)
GpH7-A5/GpH7-B3 variant Q295_09D/GpL16-k0 (antibody, human IgG1, kappa, mutation in one H chain only; also called He Ab Q295_09D; Q295D) heavy 1: not shown heavy 2: not shown light: DIVMTQSPLSLPVTPGEPASISCQASESLVHSNRNTYLHWYLQKPGQSPQLLIYKVSNRFSGVPDRFSGSGSGTDFTLKISRVEAEDVGVYYCSQNTHVPPTFGQGTKVEIERTVAAPSVFIFPPSDEQLKSGTASVVCLLNNFYPREAKVQWKVDNALQSGNSQESVTEQDSKDSTYSLSSTLTLSKADYEKHKVYACEVTHQGLSSPVTKSFNRGEC	100 % of HeCon Ab (=100)
GpH7-A5/GpH7-B3 variant Q295_08L/GpL16-k0 (antibody, human IgG1, kappa, mutation in one H chain only; also called He Ab Q295_08L; Q295L) heavy 1: not shown heavy 2: not shown light: DIVMTQSPLSLPVTPGEPASISCQASESLVHSNRNTYLHWYLQKPGQSPQLLIYKVSNRFSGVPDRFSGSGSGTDFTLKISRVEAEDVGVYYCSQNTHVPPTFGQGTKVEIERTVAAPSVFIFPPSDEQLKSGTASVVCLLNNFYPREAKVQWKVDNALQSGNSQESVTEQDSKDSTYSLSSTLTLSKADYEKHKVYACEVTHQGLSSPVTKSFNRGEC	105 % of HeCon Ab (=100)

Next, values leading:

He/Con_1a	Binder
101 % of HeCon Ab (=100)	GpH7-A5/GpH7-B3 variant P329_01G/GpL16-k0 (antibody, human IgG1, kappa, mutation in one H chain only; also called He Ab P329_01G; P329G) heavy 1: not shown heavy 2: not shown light: DIVMTQSPLSLPVTPGEPASISCQASESLVHSNRNTYLHWYLQKPGQSPQLLIYKVSNRFSGVPDRFSGSGSGTDFTLKISRVEAEDVGVYYCSQNTHVPPTFGQGTKVEIERTVAAPSVFIFPPSDEQLKSGTASVVCLLNNFYPREAKVQWKVDNALQSGNSQESVTEQDSKDSTYSLSSTLTLSKADYEKHKVYACEVTHQGLSSPVTKSFNRGEC
102 % of HeCon Ab (=100)	GpH7-A5/GpH7-B3 variant P271_16H/GpL16-k0 (antibody, human IgG1, kappa, mutation in one H chain only; also called He Ab P271_16H; P271H) heavy 1: not shown heavy 2: not shown light: DIVMTQSPLSLPVTPGEPASISCQASESLVHSNRNTYLHWYLQKPGQSPQLLIYKVSNRFSGVPDRFSGSGSGTDFTLKISRVEAEDVGVYYCSQNTHVPPTFGQGTKVEIERTVAAPSVFIFPPSDEQLKSGTASVVCLLNNFYPREAKVQWKVDNALQSGNSQESVTEQDSKDSTYSLSSTLTLSKADYEKHKVYACEVTHQGLSSPVTKSFNRGEC
103 % of HeCon Ab (=100)	GpH7-A5/GpH7-B3 variant P271_15Y/GpL16-k0 (antibody, human IgG1, kappa, mutation in one H chain only; also called He Ab P271_15Y; P271Y) heavy 1: not shown heavy 2: not shown light: DIVMTQSPLSLPVTPGEPASISCQASESLVHSNRNTYLHWYLQKPGQSPQLLIYKVSNRFSGVPDRFSGSGSGTDFTLKISRVEAEDVGVYYCSQNTHVPPTFGQGTKVEIERTVAAPSVFIFPPSDEQLKSGTASVVCLLNNFYPREAKVQWKVDNALQSGNSQESVTEQDSKDSTYSLSSTLTLSKADYEKHKVYACEVTHQGLSSPVTKSFNRGEC
102 % of HeCon Ab (=100)	GpH7-A5/GpH7-B3 variant Q295_13S/GpL16-k0 (antibody, human IgG1, kappa, mutation in one H chain only; also called He Ab Q295_13S; Q295S) heavy 1: not shown heavy 2: not shown light: DIVMTQSPLSLPVTPGEPASISCQASESLVHSNRNTYLHWYLQKPGQSPQLLIYKVSNRFSGVPDRFSGSGSGTDFTLKISRVEAEDVGVYYCSQNTHVPPTFGQGTKVEIERTVAAPSVFIFPPSDEQLKSGTASVVCLLNNFYPREAKVQWKVDNALQSGNSQESVTEQDSKDSTYSLSSTLTLSKADYEKHKVYACEVTHQGLSSPVTKSFNRGEC
102 % of HeCon Ab (=100)	GpH7-A5/GpH7-B3 variant Q295_04F/GpL16-k0 (antibody, human IgG1, kappa, mutation in one H chain only; also called He Ab Q295_04F; Q295F) heavy 1: not shown heavy 2: not shown light: DIVMTQSPLSLPVTPGEPASISCQASESLVHSNRNTYLHWYLQKPGQSPQLLIYKVSNRFSGVPDRFSGSGSGTDFTLKISRVEAEDVGVYYCSQNTHVPPTFGQGTKVEIERTVAAPSVFIFPPSDEQLKSGTASVVCLLNNFYPREAKVQWKVDNALQSGNSQESVTEQDSKDSTYSLSSTLTLSKADYEKHKVYACEVTHQGLSSPVTKSFNRGEC
104 % of HeCon Ab (=100)	GpH7-A5/GpH7-B3 variant Q295_03V/GpL16-k0 (antibody, human IgG1, kappa, mutation in one H chain only; also called He Ab Q295_03V; Q295V) heavy 1: not shown heavy 2: not shown light: DIVMTQSPLSLPVTPGEPASISCQASESLVHSNRNTYLHWYLQKPGQSPQLLIYKVSNRFSGVPDRFSGSGSGTDFTLKISRVEAEDVGVYYCSQNTHVPPTFGQGTKVEIERTVAAPSVFIFPPSDEQLKSGTASVVCLLNNFYPREAKVQWKVDNALQSGNSQESVTEQDSKDSTYSLSSTLTLSKADYEKHKVYACEVTHQGLSSPVTKSFNRGEC
102 % of HeCon Ab (=100)	GpH7-A5/GpH7-B3 variant Q295_15Y/GpL16-k0 (antibody, human IgG1, kappa, mutation in one H chain only; also called He Ab Q295_15Y; Q295Y) heavy 1: not shown heavy 2: not shown light: DIVMTQSPLSLPVTPGEPASISCQASESLVHSNRNTYLHWYLQKPGQSPQLLIYKVSNRFSGVPDRFSGSGSGTDFTLKISRVEAEDVGVYYCSQNTHVPPTFGQGTKVEIERTVAAPSVFIFPPSDEQLKSGTASVVCLLNNFYPREAKVQWKVDNALQSGNSQESVTEQDSKDSTYSLSSTLTLSKADYEKHKVYACEVTHQGLSSPVTKSFNRGEC
101 % of HeCon Ab (=100)	GpH7-A5/GpH7-B3 variant Q295_11K/GpL16-k0 (antibody, human IgG1, kappa, mutation in one H chain only; also called He Ab Q295_11K; Q295K) heavy 1: not shown heavy 2: not shown light: DIVMTQSPLSLPVTPGEPASISCQASESLVHSNRNTYLHWYLQKPGQSPQLLIYKVSNRFSGVPDRFSGSGSGTDFTLKISRVEAEDVGVYYCSQNTHVPPTFGQGTKVEIERTVAAPSVFIFPPSDEQLKSGTASVVCLLNNFYPREAKVQWKVDNALQSGNSQESVTEQDSKDSTYSLSSTLTLSKADYEKHKVYACEVTHQGLSSPVTKSFNRGEC
103 % of HeCon Ab (=100)	GpH7-A5/GpH7-B3 variant Q295_14T/GpL16-k0 (antibody, human IgG1, kappa, mutation in one H chain only; also called He Ab Q295_14T; Q295T) heavy 1: not shown heavy 2: not shown light: DIVMTQSPLSLPVTPGEPASISCQASESLVHSNRNTYLHWYLQKPGQSPQLLIYKVSNRFSGVPDRFSGSGSGTDFTLKISRVEAEDVGVYYCSQNTHVPPTFGQGTKVEIERTVAAPSVFIFPPSDEQLKSGTASVVCLLNNFYPREAKVQWKVDNALQSGNSQESVTEQDSKDSTYSLSSTLTLSKADYEKHKVYACEVTHQGLSSPVTKSFNRGEC

molecular target: T1, FcγRIa extracellular domain with …; test: SPR Biacore, relative FcγRIa binding vs GpH7-B3/GpL16-k0

Binder	Ho/Con_1a
GpH7-B3 variant Q295_13S/GpL16-k0 (antibody, human IgG1, kappa, mutation in both H chains; also called Ho Ab Q295_13S; Q295S) heavy: not shown light: DIVMTQSPLSLPVTPGEPASISCQASESLVHSNRNTYLHWYLQKPGQSPQLLIYKVSNRFSGVPDRFSGSGSGTDFTLKISRVEAEDVGVYYCSQNTHVPPTFGQGTKVEIERTVAAPSVFIFPPSDEQLKSGTASVVCLLNNFYPREAKVQWKVDNALQSGNSQESVTEQDSKDSTYSLSSTLTLSKADYEKHKVYACEVTHQGLSSPVTKSFNRGEC	101 % of HoCon Ab (=100)
GpH7-B3 variant Q295_16H/GpL16-k0 (antibody, human IgG1, kappa, mutation in both H chains; also called Ho Ab Q295_16H; Q295H) heavy: not shown light: DIVMTQSPLSLPVTPGEPASISCQASESLVHSNRNTYLHWYLQKPGQSPQLLIYKVSNRFSGVPDRFSGSGSGTDFTLKISRVEAEDVGVYYCSQNTHVPPTFGQGTKVEIERTVAAPSVFIFPPSDEQLKSGTASVVCLLNNFYPREAKVQWKVDNALQSGNSQESVTEQDSKDSTYSLSSTLTLSKADYEKHKVYACEVTHQGLSSPVTKSFNRGEC	99.1 % of HoCon Ab (=100)
GpH7-B3 variant Q295_14T/GpL16-k0 (antibody, human IgG1, kappa, mutation in both H chains; also called Ho Ab Q295_14T; Q295T) heavy: not shown light: DIVMTQSPLSLPVTPGEPASISCQASESLVHSNRNTYLHWYLQKPGQSPQLLIYKVSNRFSGVPDRFSGSGSGTDFTLKISRVEAEDVGVYYCSQNTHVPPTFGQGTKVEIERTVAAPSVFIFPPSDEQLKSGTASVVCLLNNFYPREAKVQWKVDNALQSGNSQESVTEQDSKDSTYSLSSTLTLSKADYEKHKVYACEVTHQGLSSPVTKSFNRGEC	102 % of HoCon Ab (=100)
GpH7-B3 variant S239_01G/GpL16-k0 (antibody, human IgG1, kappa, mutation in both H chains; also called Ho Ab S239_01G; S239G) heavy: not shown light: DIVMTQSPLSLPVTPGEPASISCQASESLVHSNRNTYLHWYLQKPGQSPQLLIYKVSNRFSGVPDRFSGSGSGTDFTLKISRVEAEDVGVYYCSQNTHVPPTFGQGTKVEIERTVAAPSVFIFPPSDEQLKSGTASVVCLLNNFYPREAKVQWKVDNALQSGNSQESVTEQDSKDSTYSLSSTLTLSKADYEKHKVYACEVTHQGLSSPVTKSFNRGEC	101 % of HoCon Ab (=100)

The remaining lines, values ahead:

Ho/Con_1a	Binder
97 % of HoCon Ab (=100)	GpH7-B3 variant Q295_15Y/GpL16-k0 (antibody, human IgG1, kappa, mutation in both H chains; also called Ho Ab Q295_15Y; Q295Y) heavy: not shown light: DIVMTQSPLSLPVTPGEPASISCQASESLVHSNRNTYLHWYLQKPGQSPQLLIYKVSNRFSGVPDRFSGSGSGTDFTLKISRVEAEDVGVYYCSQNTHVPPTFGQGTKVEIERTVAAPSVFIFPPSDEQLKSGTASVVCLLNNFYPREAKVQWKVDNALQSGNSQESVTEQDSKDSTYSLSSTLTLSKADYEKHKVYACEVTHQGLSSPVTKSFNRGEC
101 % of HoCon Ab (=100)	GpH7-B3 variant Q295_18N/GpL16-k0 (antibody, human IgG1, kappa, mutation in both H chains; also called Ho Ab Q295_18N; Q295N) heavy: not shown light: DIVMTQSPLSLPVTPGEPASISCQASESLVHSNRNTYLHWYLQKPGQSPQLLIYKVSNRFSGVPDRFSGSGSGTDFTLKISRVEAEDVGVYYCSQNTHVPPTFGQGTKVEIERTVAAPSVFIFPPSDEQLKSGTASVVCLLNNFYPREAKVQWKVDNALQSGNSQESVTEQDSKDSTYSLSSTLTLSKADYEKHKVYACEVTHQGLSSPVTKSFNRGEC
